Test results from patent US6825167.

What was measured:
αvβ3 integrin (human) [1] = biological target: αvβ3 integrin (human) (UniProt P06756); experiment: attachment of αvβ3-expressing WM35 cells to wells coated at 1 nmole/well, Cell Counting Kit-8
αvβ3 integrin (human) [2] = biological target: αvβ3 integrin (human) (UniProt P06756); experiment: cell-based or functional assay

Chain of UniProt P06756 (P06756 31-1048, chain 1 of 2): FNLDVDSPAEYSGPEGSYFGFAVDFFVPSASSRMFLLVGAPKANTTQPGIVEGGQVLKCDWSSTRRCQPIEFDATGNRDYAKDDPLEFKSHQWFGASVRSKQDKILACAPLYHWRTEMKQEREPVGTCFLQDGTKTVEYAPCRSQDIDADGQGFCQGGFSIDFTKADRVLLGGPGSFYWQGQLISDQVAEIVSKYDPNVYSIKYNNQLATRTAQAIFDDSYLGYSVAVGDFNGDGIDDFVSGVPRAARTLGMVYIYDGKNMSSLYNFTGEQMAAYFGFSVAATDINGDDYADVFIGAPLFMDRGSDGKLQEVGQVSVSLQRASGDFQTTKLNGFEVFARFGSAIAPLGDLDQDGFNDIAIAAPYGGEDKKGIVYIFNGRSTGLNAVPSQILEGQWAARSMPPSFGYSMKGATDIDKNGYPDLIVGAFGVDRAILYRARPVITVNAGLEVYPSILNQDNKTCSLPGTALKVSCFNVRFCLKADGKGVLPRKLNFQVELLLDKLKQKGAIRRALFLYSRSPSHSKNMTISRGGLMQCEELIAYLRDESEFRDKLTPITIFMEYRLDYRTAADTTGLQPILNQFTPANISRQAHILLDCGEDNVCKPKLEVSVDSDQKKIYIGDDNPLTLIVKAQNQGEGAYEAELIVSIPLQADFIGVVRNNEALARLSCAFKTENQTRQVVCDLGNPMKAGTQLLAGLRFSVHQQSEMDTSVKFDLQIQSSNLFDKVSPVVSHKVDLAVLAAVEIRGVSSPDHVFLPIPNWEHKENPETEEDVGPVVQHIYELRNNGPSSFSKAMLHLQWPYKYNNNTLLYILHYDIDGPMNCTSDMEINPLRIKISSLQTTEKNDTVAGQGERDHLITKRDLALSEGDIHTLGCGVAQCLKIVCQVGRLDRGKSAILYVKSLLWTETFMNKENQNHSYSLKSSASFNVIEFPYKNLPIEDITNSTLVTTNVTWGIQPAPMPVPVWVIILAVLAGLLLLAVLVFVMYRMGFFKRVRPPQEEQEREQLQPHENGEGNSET
Chain of UniProt P06756 (P05106 27-788, chain 2 of 2, further chain): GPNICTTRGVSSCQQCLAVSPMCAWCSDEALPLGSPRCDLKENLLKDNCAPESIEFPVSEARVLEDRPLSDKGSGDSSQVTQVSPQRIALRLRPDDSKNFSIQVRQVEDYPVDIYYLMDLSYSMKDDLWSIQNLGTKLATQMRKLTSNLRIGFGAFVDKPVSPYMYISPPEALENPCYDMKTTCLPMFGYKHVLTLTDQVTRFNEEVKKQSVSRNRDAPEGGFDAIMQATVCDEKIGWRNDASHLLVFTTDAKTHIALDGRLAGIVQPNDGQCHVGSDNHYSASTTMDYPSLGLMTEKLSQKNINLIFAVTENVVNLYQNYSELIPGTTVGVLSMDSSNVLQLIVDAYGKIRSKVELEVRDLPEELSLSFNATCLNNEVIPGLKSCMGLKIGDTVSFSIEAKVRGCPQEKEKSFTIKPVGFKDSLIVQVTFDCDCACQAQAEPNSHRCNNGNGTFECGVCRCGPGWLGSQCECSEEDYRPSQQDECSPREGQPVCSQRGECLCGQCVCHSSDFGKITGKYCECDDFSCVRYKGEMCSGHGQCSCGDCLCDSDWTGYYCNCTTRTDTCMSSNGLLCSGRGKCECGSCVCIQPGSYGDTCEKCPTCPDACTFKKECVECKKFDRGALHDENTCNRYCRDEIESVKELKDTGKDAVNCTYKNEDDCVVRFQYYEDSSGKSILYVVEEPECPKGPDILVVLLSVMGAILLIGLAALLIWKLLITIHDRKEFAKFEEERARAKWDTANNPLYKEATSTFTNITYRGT

percent of cells attached (100% = gelatin-coated wells) (αvβ3 integrin (human) [1])	HUVEC attachment to coated wells (100% = gelatin-coated wells) (αvβ3 integrin (human) [2])	increase of HUVEC attachment over native endostatin (αvβ3 integrin (human) [2])	direct binding of [125I]-RGD-endostatin to HUVEC (pmole per 10^6 cells) (αvβ3 integrin (human) [2])	Substance
18%				human endostatin (from UniProt P39060 1572-1754)
	80%	40%		human endostatin-RGD (from UniProt P39060 1572-1754)
60%	80%	40%	1.2 pmol	RGD-human endostatin (from UniProt P39060 1572-1754)
